Assay results taken from the Human Domainome abundance scans (Beltran et al. 2025).
± gives the uncertainty stated by the source.

B1: Cyclin-F, residues 28 to 80; numbered along this chain, P41002 (parent)
chain: RNLTILSLPEDVLFHILKWLSVEDILAVRAVHSQLKDLVDNHASVWACASFQE

Variants of: B1
Assay: abundance fitness (aPCA) (normalised: wild type 0, dead -1); higher = more abundant; growth selection in yeast, the domain comes from the species named
Conditions: Homo sapiens

Row | Variant | abundance fitness
1 | L38C | 0.17 ± 0.099
2 | L38S | -0.302 ± 0.1
3 | L38H | -0.12 ± 0.2
4 | L38F | 0.07 ± 0.13
5 | L38T | -0.133 ± 0.15
6 | L38E | -0.872 ± 0.24
7 | L38M | -0.008 ± 0.13
8 | L38N | -0.906 ± 0.26
9 | L38A | -0.075 ± 0.094
10 | L38Q | -0.682 ± 0.2
11 | L38I | 0.244 ± 0.17
12 | L38D | -0.758 ± 0.18
13 | L38V | 0.273 ± 0.088
14 | L38K | -0.34 ± 0.17
15 | L38R | -0.633 ± 0.11
16 | L38G | -0.561 ± 0.095
17 | L38Y | -0.151 ± 0.16
18 | L38P | -0.935 ± 0.27
19 | L38W | -0.214 ± 0.12
20 | S44M | -0.223 ± 0.12
21 | S44F | -0.278 ± 0.12
22 | S44T | -0.307 ± 0.12
23 | S44V | -0.535 ± 0.096
24 | S44Y | -0.428 ± 0.15

Row | Variant | abundance fitness
25 | S44H | 0.222 ± 0.32
26 | S44W | -0.485 ± 0.14
27 | S44R | -0.281 ± 0.079
28 | S44L | -0.499 ± 0.1
29 | S44A | -0.119 ± 0.099
30 | S44D | 0.212 ± 0.13
31 | S44G | 0.05 ± 0.084
32 | S44K | -0.104 ± 0.11
33 | S44N | 0.11 ± 0.24
34 | S44Q | -0.306 ± 0.21
35 | K36E | -0.771 ± 0.21
36 | K36H | -0.445 ± 0.15
37 | K36M | -0.932 ± 0.2
38 | K36L | -0.625 ± 0.12
39 | K36G | -0.891 ± 0.14
40 | K36F | -0.811 ± 0.21
41 | K36N | -0.779 ± 0.23
42 | K36V | -0.785 ± 0.12
43 | K36T | -0.723 ± 0.16
44 | K36R | 0.054 ± 0.084
45 | K36D | -0.886 ± 0.28
46 | K36A | -0.561 ± 0.13
47 | K36I | -0.986 ± 0.23
48 | K36W | -0.626 ± 0.22

Row | Variant | abundance fitness
49 | K36S | -0.788 ± 0.11
50 | K36P | -0.573 ± 0.16
51 | K36C | -0.915 ± 0.18
52 | K36Q | -0.609 ± 0.23
53 | K36Y | -0.883 ± 0.23
54 | V45R | -0.031 ± 0.085
55 | V45E | 0.362 ± 0.11
56 | V45D | 0.289 ± 0.15
57 | V45W | 0.1 ± 0.14
58 | V45P | -0.061 ± 0.11
59 | V45S | 0.149 ± 0.093
60 | V45K | 0.181 ± 0.12
61 | V45F | -0.016 ± 0.11
62 | V45T | 0.131 ± 0.13
63 | V45M | -0.082 ± 0.21
64 | V45H | 0.137 ± 0.13
65 | V45L | -0.076 ± 0.088
66 | V45I | -0.026 ± 0.13
67 | V45G | -0.149 ± 0.095
68 | V45N | 0.031 ± 0.14
69 | V45C | -0.027 ± 0.11
70 | D37I | 0.228 ± 0.34
71 | D37N | -0.017 ± 0.13
72 | D37C | 0.012 ± 0.13

Row | Variant | abundance fitness
73 | D37V | -0.049 ± 0.1
74 | D37G | -0.044 ± 0.085
75 | D37Q | 0.075 ± 0.17
76 | D37S | 0.006 ± 0.098
77 | D37K | 0.356 ± 0.15
78 | D37H | -0.086 ± 0.17
79 | D37A | 0.027 ± 0.098
80 | D37T | 0.076 ± 0.12
81 | D37L | 0.03 ± 0.089
82 | D37M | 0.158 ± 0.14
83 | D37P | -1.02 ± 0.2
84 | D37W | -0.42 ± 0.13
85 | D37F | -0.222 ± 0.16
86 | A43L | -0.605 ± 0.33
87 | A43W | -0.264 ± 0.26
88 | A43R | -0.273 ± 0.22
89 | A43N | -0.303 ± 0.3
90 | A43C | -0.006 ± 0.37
91 | A43V | -0.616 ± 0.19
92 | A43T | -0.416 ± 0.39
93 | A43G | -0.409 ± 0.33
94 | A43E | -0.343 ± 0.36
95 | A43I | -0.577 ± 0.36
96 | A43P | -0.039 ± 0.37

Row | Variant | abundance fitness
97 | V39W | -0.648 ± 0.15
98 | V39R | -0.793 ± 0.099
99 | V39S | -0.445 ± 0.12
100 | V39I | -0.074 ± 0.098
101 | V39P | -0.931 ± 0.19
102 | V39T | -0.787 ± 0.19
103 | V39F | -0.819 ± 0.22
104 | V39Q | -0.362 ± 0.3
105 | V39A | -0.341 ± 0.11
106 | V39E | -0.819 ± 0.17
107 | V39D | -0.655 ± 0.21
108 | V39C | -0.245 ± 0.12
109 | V39M | -0.781 ± 0.27
110 | V39K | -0.767 ± 0.15
111 | V39L | -0.287 ± 0.1
112 | H42I | -0.075 ± 0.25
113 | H42A | -0.442 ± 0.087
114 | H42K | -0.068 ± 0.12
115 | H42T | -0.487 ± 0.13
116 | H42V | -0.716 ± 0.095
117 | H42S | -0.347 ± 0.098
118 | H42E | -0.8 ± 0.14
119 | H42F | -0.418 ± 0.13
120 | H42Y | -0.365 ± 0.11

Row | Variant | abundance fitness
121 | H42G | -0.467 ± 0.094
122 | H42P | -0.526 ± 0.15
123 | H42N | -0.35 ± 0.19
124 | H42D | -0.746 ± 0.29
125 | H42W | -0.45 ± 0.13
126 | H42L | -0.546 ± 0.11
127 | H42C | -0.237 ± 0.15
128 | H42R | -0.175 ± 0.085
129 | H42M | -0.64 ± 0.19
130 | D40G | -0.77 ± 0.1
131 | D40Q | -0.49 ± 0.2
132 | D40N | -0.664 ± 0.15
133 | D40S | -0.432 ± 0.12
134 | D40F | -0.828 ± 0.22
135 | D40P | -0.791 ± 0.2
136 | D40H | -0.552 ± 0.19
137 | D40L | -0.919 ± 0.12
138 | D40T | -0.444 ± 0.15
139 | D40R | -0.749 ± 0.11
140 | D40E | -0.684 ± 0.17
141 | D40C | -0.912 ± 0.22
142 | D40K | -0.805 ± 0.27
143 | D40V | -0.606 ± 0.095
144 | D40M | -0.884 ± 0.28

Row | Variant | abundance fitness
145 | D40A | -0.917 ± 0.13
146 | D40W | -1.03 ± 0.2
147 | D40Y | -0.862 ± 0.22
148 | N41V | -0.484 ± 0.15
149 | N41T | -0.131 ± 0.15
150 | N41Q | 0.128 ± 0.14
151 | N41A | -0.071 ± 0.21
152 | N41W | -0.733 ± 0.2
153 | N41L | -0.306 ± 0.1
154 | N41E | -0.039 ± 0.17
155 | N41S | 0.052 ± 0.1
156 | N41K | 0.231 ± 0.16
157 | N41R | 0.241 ± 0.09
158 | N41Y | -0.569 ± 0.27
159 | N41M | -0.272 ± 0.16
160 | N41P | -0.59 ± 0.15
161 | N41F | -0.692 ± 0.19
162 | N41I | -0.455 ± 0.21
163 | N41H | -0.035 ± 0.18
164 | N41D | -0.435 ± 0.19
165 | N41G | -0.033 ± 0.11
166 | L35Y | -0.687 ± 0.41
167 | L35W | -0.567 ± 0.13
